Test results from article PMC12630593.

Columns and labels:
Assay in all cases: EMSA
NFI-X193 R115W = NFI-X193 R115W (mouse, UniProt P70257 14-193, R115W)
NFI-X193 R116P = NFI-X193 R116P (mouse, UniProt P70257 14-193, R116P)
NFI-X193 K113E = NFI-X193 K113E (mouse, UniProt P70257 14-193, K113E)
NFI-X193 K125E = NFI-X193 K125E (mouse, UniProt P70257 14-193, K125E)
NFI-X193 R116Q = NFI-X193 R116Q (mouse, UniProt P70257 14-193, R116Q)
NFI-X193 R121P = NFI-X193 R121P (mouse, UniProt P70257 14-193, R121P)
NFI-X193 (NFI-X DBD) = NFI-X193 (NFI-X DBD) (mouse, UniProt P70257 14-193)

B1: NFI-31bp Cy5 probe (dsDNA)
DNA 1: GGGTCTCTTTGGCAGGCAGCCAACCAGCAAA
DNA 2: TTTGCTGGTTGGCTGCCTGCCAAAGAGACCC
Question: Does B1 bind (NFI-X193 R115W)?
Answer: no binding

Question: Does B1 bind (NFI-X193 R116P)?
Answer: no binding

Question: Does B1 bind (NFI-X193 K113E)?
Answer: no binding

Question: Does B1 bind (NFI-X193 K125E)?
Answer: no binding

Question: Does B1 bind (NFI-X193 R116Q)?
Answer: no binding

Question: Does B1 bind (NFI-X193 R121P)?
Answer: binds

Question: What about the Kd (NFI-X193 (NFI-X DBD)) of the same binder?
Answer: 48.1 ± 0.49 nM
